Results from patent publication US20250332264A1, “GhR-BINDING PEPTIDE AND COMPOSITION COMPRISING SAME” (priority 2021, published 2025).
One block for each binder: values may come before it. Starred links: 1 amine or outer side, 2 acyl side, 3 side chain; linkers in the order of their positions; H or OH if unused. Positions of bridges follow the written chain, without caps; N, C: chain ends. Non-standard residues stand in square brackets, D forms with d. A4pipaa = 4-amino-1-(carboxymethyl)piperidine-4-carboxylic acid, O=C(C1(N[*:1])CCN(CC(=O)[*:3])CC1)[*:2]; Trp(1-CH2CO) = O=C([C@H](Cc1cn(CC(=O)[*:3])c2ccccc12)N[*:1])[*:2]; Trp(5-OMe) = COc1ccc2[nH]cc(C[C@H](N)C(=O)O)c2c1; Trp(5-OH) = N[C@@H](Cc1c[nH]c2ccc(O)cc12)C(=O)O; NMeK = CN[C@@H](CCCCN)C(=O)O; Aib = CC(C)(N)C(=O)O

Target: T1, Recombinant human GhR-Fc protein (R&D Systems) (human, UniProt P10912 19-264, limits assumed)
T1 construct: Bought from R&D Systems; Amine-coupled to a CM5 chip in the SPR assay; also called hGhR; recombinant human GhR protein fused to Fc portion of human IgG; not shown: Fc portion of human IgG
T1 sequence (looked up): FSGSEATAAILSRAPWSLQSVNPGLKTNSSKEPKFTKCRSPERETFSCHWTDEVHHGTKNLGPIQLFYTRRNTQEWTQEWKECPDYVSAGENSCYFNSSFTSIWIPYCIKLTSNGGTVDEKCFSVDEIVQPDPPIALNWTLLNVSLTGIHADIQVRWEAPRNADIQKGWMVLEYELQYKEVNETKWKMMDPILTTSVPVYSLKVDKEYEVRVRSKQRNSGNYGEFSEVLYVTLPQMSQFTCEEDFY
Assay: SPR, Biacore T200, single-cycle kinetics, GhR-Fc immobilised on CM5
Procedure: SPR assay was performed using Biacore T200 (cytiva: Former GE Healthcare). After the equilibration of Series S Sensor Chip CM5 (produced by cytiva: Former GE Healthcare) with Running Buffer (HBS-EP with 1% (v/v) DMSO), an EDC/NHS mixture was injected at a flow rate of 10 μL/min for 7 minutes to thereby activate the functional groups on sensor chip. Recombinant human GhR-Fc protein (R&D Systems) in 10 mM Acetate (pH4.0) was injected immobilized to at a flow rate of 5 μL/min. It took 7 minutes to immobilize the GhR on the substrate surfaces of the sensor chip. Then Ethanolamine was injected at a flow rate of 10 μL/min for 7 minutes. 1M Ethanolamine (aq.) was injected at a flow rate of 10 μL/min for 420 seconds for capping. 10 mM Peptides in DMSO were diluted to obtain 10 uM with Running Buffer, and prepared 100 nM, 50 nM, 25 nM, 10 nM, 5 nM of each peptide solutions (Peptide Samples).
Using these Peptide Samples, kinetics of peptides against human GhR-Fc protein were measured. The method adopted for sample measurement was a single-cycle kinetics method. The analysis was conducted using the evaluation software provided with Biacore T200. A DMSO correction curve obtained by solvent correction measurements was applied for the analysis. Kinetics fitting was done on the difference data obtained by subtracting the baseline data from sample measurement data. KD values were calculated based on the association rate constant (ka) and dissociation rate constant (kd).

- Kd: 1.07 nM
Binder: {CH2CO}-Y[NMeK]VVSN[Trp(1-CH2CO)]YK[Trp(5-OH)][Aib]VCG-NH2 (thioether N-13; lactam 2-7 via P, also called Compound No. 4) [GhR_PD_142]

- Kd: 3.36 nM
B1: GhR_PD_205 (peptide)
peptide: {CH2CO}-YKVVSN[Trp(5-OMe)]YK[Trp(5-OH)][A4pipaa]VC-NH2
modifications: thioether N-13; not fully specified (residue 2); also: albumin binder E-4IPhpCO, attachment site not given here
notes: No linker; also called Compound No. 45
